Measured values as given in US20240277845A1.
Residue numbers refer to the chain shown, from its start. Names may count otherwise. One block for each binder: values may come before it.

What was measured:
Fc-iNKG2D.YA (human) = Fc-iNKG2D.YA (human) (UniProt P26718); test: ELISA; wells coated with Fc-iNKG2D.YA, R3Mab heavy-chain MicAbody titrated
Fc-wtNKG2D (human) = Fc-wtNKG2D (human) (UniProt P26718); test: ELISA; wells coated with Fc-wtNKG2D, R3Mab heavy-chain MicAbody titrated
Chain of Fc-wtNKG2D (human) (P26718 other isoform, or with tags, fused parts or gaps limits assumed): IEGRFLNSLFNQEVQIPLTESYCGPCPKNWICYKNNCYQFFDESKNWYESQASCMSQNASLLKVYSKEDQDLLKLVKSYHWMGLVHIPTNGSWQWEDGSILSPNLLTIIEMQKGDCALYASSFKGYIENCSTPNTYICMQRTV

Chain of Fc-iNKG2D.YA (human) (P26718 other isoform, or with tags, fused parts or gaps limits assumed): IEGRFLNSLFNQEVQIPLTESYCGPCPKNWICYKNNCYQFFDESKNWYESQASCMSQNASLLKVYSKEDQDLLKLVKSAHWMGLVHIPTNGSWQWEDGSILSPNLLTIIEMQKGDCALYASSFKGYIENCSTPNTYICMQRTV

EC50 (read off the curve) (Fc-iNKG2D.YA (human)): 0.02 nM
B1: R3Mab heavy-chain fusion of U2S3 (MicAbody) (bispecific antibody, part only; not given: R3Mab variable domains, light chain, Fc, IgG1, not shown: a dimerising Fc or GST)
heavy, part: GGGSEPHSLSYDITVIPKFRPGPRWCAVQGQVDEKTFLHYDCGNKTVTPVSPLGKKLNVTTAWKAQNPVLREVVDILTEQLWDIQLENYTPKEPLTLQARMSCEQKAEGHSSGSWQFSFDGQIFLLFDSEKRMWTTVHPGARKMKEKWENDKVVATKLYLWSMGDCIGWLEDFLMGMDSTLEP

EC50 (read off the curve) (Fc-wtNKG2D (human)): 0.4 nM
B2: R3Mab heavy-chain fusion of wild-type ULBP2 (MicAbody) (bispecific antibody, part only; not given: R3Mab variable domains, light chain, Fc, not shown: a dimerising Fc or GST)
heavy, part: GGGSDPHSLCYDITVIPKFRPGPRWCAVQGQVDEKTFLHYDCGNKTVTPVSPLGKKLNVTTAWKAQNPVLREVVDILTEQLRDIQLENYTPKEPLTLQARMSCEQKAEGHSSGSWQFSFDGQIFLLFDSEKRMWTTVHPGARKMKEKWENDKVVAMSFHYFSMGDCIGWLEDFLMGMDSTLEPSAGAP

EC50 (read off the curve) (Fc-wtNKG2D (human)): 0.02 nM
B3: R3Mab heavy-chain fusion of ULBP2 R81W (MicAbody) (bispecific antibody, part only; not given: R3Mab variable domains, light chain, Fc, not shown: a dimerising Fc or GST)
heavy, part: B2 heavy, part with R82W
